Assay: protease stability score; higher = more stable; yeast display proteolysis, trypsin and chymotrypsin;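 note: log10 excess protease needed over predicted unfolded state with 0 meaning unfolded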

Sequence	protease stability score
DDQRLRELNDTIAENIQSGDESKLSQLADPNVRLQIGDKEWHGREEMQKAWDELRRSADHIEIRSITAKGDHAVINAVLHHNGRTSQVRFDFSFHNGRIVRVSMHET	1.48
DDQVAKMVRKLLRLEESGNEEELRKLADEEAEFVVGDKRYRGMTEYVQSVYHKKKEIRFKIITYSAEDDGDKIVVIIKMTNNHNGQPDTFRVKVVFVANNGNLKHANFRKRK	0.39
DDRDAERLVELWKTGDPDKFANHMRDDVRVQIGDKSVRGRDEAHKILERLRQQIDHWEIKDYEVHGERVIIHAVATVNGRHLNFVIVVQMHNGRIQSVQYKVTSEDDQHRIKKLLD	0.326
DDRDAKHFKEIMKHGNFEEMVRQADPNVTITIGDREVHGRHQAQKFVDTLNDRIDHYQVDEIDVKGEKITAEVAMVVNGVRVDFVIVMHFENGRIKSVRIEATNEHAHENFRRIHS	0.561
DDRDEAHKLHEDYDRVMQTGDDDRVREMVDPNAKLRIGDQDLRGREELAELMKRQRDRADHVRIELRSVKVDGNKITMKLNFHLDHNGRTENTDATYHYEKDNGQWELKHAKVS	-0.052
DDRDEEKLQEQRKIHENNDEDRRKELVDPNVKFDVGDRHYHGRETNSKKFVDENREMRVEVDIKRVTNDEDHLRFEAHVVIRNNGQPDTKKVRLEQRLDGDKLKMERQEDKR	0.276
DDRDIERAKEMFKAIKTGDPDRLSELVDENARVKIGDKEWHGNTEWVEDLERKKKEMSVDLQIHKIEDRNGVAQIHMTRRMDHNGKPRSDKYVLFIRARNGRIVDVRAEERS	0.097
DDRDIERMAKDYVRAIRTGDEEQIRRLMDKDVKYEIGDKTIHGRENWAKWVKNFRRHADHVRLKDMRVHGNKIDLNMEFQVNGEKKRQKYDIQVHNGRIKTVRIEDS	1.47
DDRDIKQAADRFLEDIKTNNPENVRKLVDENARVQIGDKQYRGKERIQEAMEEWIKRVDHWRIEDIKIHGDQVHVKMRINVNGRNLTFIMVVSIKNGTLKTLTMNVTDTEKLREMLR	1.27
DDRDKVKSLWKQMLTILRTGDHKRWNKLVDKDVKYNIGDKSIHGKEEAEKLVKKIKDKVDTVSQTIVDVQNHNGRIHLRLRMVNNFNGNHNTYEVNAQFEKKNGRVKMQNQTDN	0.149
DDRDLEQLLRELVTIWKNGNFEDLSRQADPNVKFRVGDKTYHGREQASKLWKKLSDQADHWSVDSVQAKGDTLRLDFRATVNGHEVRMVYHARIQNGSITSWEIQYTSEELHTRVER	1.09
DDRDLETMVRLWRDNDSKRLKQNVDPNARIRYGNFEVHGREQVQKWIKLFRDRVDHNDIKRYQTTPGRLVMQLSATFNGVKVKFTMIVEFHNGNIRLIQINFTDEENMKHLVREVE	1.55
DDRDLKRMADVLKTGDPDKLNENADKDAQVHVGNKRVHGREQFHEYQRRLREQIDHLHVKHIEITENKARIDYEFHVNGQKFSFTLTFQAHDGKLKRMSATFTSEEEEKRWDEIVD	0.302
DDRDRKKQMSKLIEIFKEGDPRKWMELLDENARIQIGDTRIRGREHASDWLKKLRDHVDSISIHDMEVDGNHIRVVIEVVIDGRSAVYKFVVHLKNGKVKHVDVSATSKEHENNMSR	1.5
DDREEARKMLHKADRALNDGDPRSAQNLVDENAQVVYGDKRYSGDQQAADVMVSLRHQYDHLSLEIDRLRVDGNRVHVDATLTAQRNGSTLHSKLNFVFSKKNGRLRVSHLVIG	0.183
DDREIKELLQLMLDAIRDGNEQSASKMADENARVKVGDKKVHGREQIQELVKELKKNVDHFTVNDIKQQGDKASADAEMDVNGVTVHMEVRVQVHNGHVKHAEMTYRDEDQKRQFHQ	-0.433
DDRELDHAKKVAERNDPDKLRKLADPNAHLTVGDKKIHGMHNAAQKVVSMWEQADHVDIKHVDQHNGRVRVEFRFVVNGREMEMVMRFEVKNGHIKRLQLEFTSEELQKKFDKLAD	0.57
DDRELEDVQRVVETGDPDKLNDLADKDARMQVGDHKVRGSDQVRSLMDKLKKRIDHYDVKSITIRNGRLDATVVFVINGEEIEVRIVLRVHNGRLKEMSIHATSERVQTILKKAMS	0.803
DDREMKKFAEQYARNLTRNDEDSLKDLFDENAEVTIGDKQVRGQEKIKSLLHQLHQQVDHFDLRRVDAQGDDIKIVVLWNHNGKHLNVTISMRVHNGRIKSATDHVRSEDDERKFKR	0.569
DDREQAQKFMDLFEDAIKDGDPRQAEELAPPDAKARYGDKKLTGMHDIARHFIDEVKRVDHHRVTYKDIKNEGNKFVFTFVYTFKHNGQSDDKQVRVEAENHNGRLLVTSIHDT	0.724
DDRERAERYLRQVENALHTNDPRQLKNQADKDVKIEIGETDLHGTKDFVKMMKEIINRADHARFTVRSVRRHGDKMRVEFTAEVNHNGRRRTHTIRITLQLENGDVVLQSLRVE	0.302
DDREVDKVEELLKTGDFLKMANRADKNARMQIGDKEYRGREHVQDAAKRLDRQVDTEKVTDLRTDGEKVLVHYIQHFDGQNLEVDVEFHFHNGRLQEVVFHVRDPKKQKEFDKRVG	-0.235
DDREVVDRALKELRSILHEGDEEQMHRNFPPEASVKYGDTEYTGMESAAHLIIELRKRVDHMEQRVTTVNVRNGTVDVDMSADVRHNGREDSIKVKLILRISNGRAQLEQVINP	1.18
DDRHEMKTALKQLIDAIRQGNPDTIMSLLDPNVTFTYGDQNIRGREHVNTELVHRRNRVDNVHVNLQDIDQDGEKLHARFQMVLRRNGRNDTRDMVLVAQVHNGKARIRRLHHG	0.557
DDRHLHHRAREWAEQLKTNDEDELTKYVDPNARMRVGDKSVHGREKLQEQIHRDNERVDNVEIRSIRIENGTVNIRQVNDVNGRNDDFRVRMHIHNGQLKVNERHSP	-0.38

Sequence	protease stability score
DDRHLQQLASIAAKALRTGNPKDMKKLVDPNAKMHYGDKEVHGREQMADVLRRIRRDADHIDLRSYSADNGRISIDMDLRVNGKKVRIIVKAEVHNGKVTHVTVDTK	0.766
DDRHVQKRLKTFIHILRTGDPQKISNLVDPNAEIQVGDKEYHGRHEIRKLIEELKTRVDHIDVVDMKAEGDKARANLNVNVNGHDIRFVVQLVWDNGHVKSVRIKYRNERVERQEKG	1.61
DDRIKELADRFMNALQTNDPDKINNLVDPNAKITVGDKSVRGDEQINRTMDQRKRELRQDYDVRSVEVHGNTAIIDVHVTFEHNGEPHKEKQTIIIHVKNGRAVDIKITRHS	-0.326
DDRIRQVVEEWWKAVETNDPDKAKENVDKDVRVEVGDKQFRGSETLEKRIRDEKDHARVVVRMQSVSVHGDTVDVTYNVVVEVNGNPLRFKAQAFFRARNGRMQSIQFSFSKEDKKRVDG	0.916
DDRLNEMARRFITLLTTGDPKEAHKYMDENARFQIGDERYHGMHEFERLLTERQKTSRVQINSLEVQHEPNRANIHADVENERNGQPRRFDVIIELHAHNGRIKEITYEYRQ	-0.009
DDRLREVFEHIVELFKTGNPEELSRNVDPNARYQYGDKELHGRDHYRREVKDLIDTMRYEQEVDKVQKRGEKVRIEAEARHKENGRPNEFTFVIEFKAHNGKVKHEVQHESS	-0.15
DDRNKHIFKKIIEAERTGDEDKLRQNFDPNARFRIGNQTYHGREHWADRVSDLRKKIRVEIKIKRVQVDGDKVVVKYQVVYNVNGRPKKDTFRVVLHFQNGKAKHRTFQIDEERKEHLDS	0.252
DDRNNHRAKTFLTALNHNDPDQMERMVDENAQVQVGDKSYRGREDMKRWLKELIDSIRLEVHVHSLTQHNGVAVADIEETRESNGDPEEDSFTLYIQVHNGQAKRLEESKKS	0.552
DDRNQAEKQVDEMRKIAKTGDEDRMADLFIDNPRFNVGDETYHGREQVVKYFRDTFRQVDHMHITLRRLSVHNGRVKAEFDVTLNRNGRETKDIFVVIQVKHNGTLRIESVHQK	0.781
DDRQIEVLKDYIKAVQQNDPDRMRQNADPNATFNVGDKRYHGMTEYAEEVAKHLKEMRFEIRDIRLRDHNGKVHVEYEAEYEVNGQPFTQKVSFVAEVTNGHVKRVHYSTDEDLTRIEQK	-0.24
DDRQMDHFAHQFERNNPDEYRKMLDPNARAEYGDKDYSGREQVQTLADTLHKQFDHLEVKDYRFNNGRAEFRYEAKFNGKTLTMKMVAEVKNGHIKHVVFRVTDPRQRKDLQREFG	0.156
DDRQQRVMEKILTAVQKGDEKKVKDQMDPNVKVHVGEFHYQGEEQLEKTLRHRTKELEIEYREITFRVDNGNVHVDVKAQLNNNGKPQQFTQHFSAEVDGDRVKTVHVEVKQ	-0.533
DDRQRRQFAERVQKVLRTGDPERFMQMADENVQVHVGDQTYRGRDQAEKNMREFVKRVDHLQIISFHFEGNHAVIVFIAHFDGKEATIEMVIRFSNGHIKEMKINPDQIRQMRS	1.21
DDRQVEELVRIMQRGNFKDLASNLDENVHVKVGNRTYHGREKAETVFNRLQQRIDHYEIIHVQERPNRAQVRFRFRVNGRTVEATVKAQAHNGRIKEMNLQARDEDAQREIDHAID	1.24
DDRQVERLAKEVVKNLETGNPNEFMKLMDPNAKFEVGDQDIHGREQWSEWVDHLSKHVDSLEVKSVTAHNGRVDIDMVFRVNGEKRVVKIVITVKNGHIKEMEIREQ	1.2
DDRRLAQEMANQFRKIRETGNPDDIVQLADPNAKYRIGERDVHGKEEIKKDFQEEKDRVDRIEVEIDSIEVKNGEVRVTFILRRTHNGRRESRTLVMNARVDNGRLTMESATEK	-0.205
DDRTKMQELLDKLREAAEDGDRRKVHQLFDENARFEIGDTEFHGMTSAAKRLAEEWKRHDHVQFSVREIRVEPGRFVVHMQERNSHNGKSDSKNVVMTVTKSNGQIRATKVKVR	0.387
DDRTQKRLAEEVVRILNRGDEDQIRKMADKDVKARVGEQSVHGRETALRLLIEFNRRVDHVDIRHVHTEEGRVEVDLVAEVNGRRIRMHIVFILHNGKLHKVEMDPDELRKLEK	0.868
DDRVADLLRKWWEAVRTGDPDRAANQVDPNAKVEYGDKQVHGREQIRTELDERKRNAKFEYKIKTYNKDEDHVKVEAEAVVVINGRPHKFTYQVHARADGDKIKHMRIELPEDVLHEMQG	0.553
DDRVLHEMVKVMETGDFEKFARLADPNATIEYGDKKIHGREDAEKFATKIKQRVDHVQIKTYSVKGDSARIHFELNVNGSRIDMVLVLQVKNGRLRRASFEFRDREDSKEFVKRVH	0.068
DDSAMRQIHDLLRHIETGNEKEVSKQMDPNARLQIGDQVYHGNEQARRAWKRERDEIRISIKRVRMDAKGDKVFIEMDLVREKDGTPDRLTMRITVQQHDGRVKDLVQEERR	0.07
DDSANERAKKVMHALKTGDPDTMSELLDPNATVDVGEKQVKGMDNIVDILRKERDQIRYSIDVKRMNAKGDKVVVDATRESHHNGQPRSWHFTIFFNNTNGRVKNLKVEESG	0.626
DDSDVNQAQTIWKHWQQGNFREIAKNADPNVKINVGDKQYHGREEYESDMQEHRNQIRVKITSMSQNKNGDKAVVDAVIVNEENGEPEEKRFVWYIKAHNGRIVSFRVEDEK	0.176
DDSEIRTLAKQLAHVIETGDHEHFRKMAPPDVRARIGETEYHGREQVAEALKQERRTADHVQVEDVKASGNNVTLIITQKENGRRDRFKMVFEFHNGKVKFVSQEKQ	-0.189
DDSENRNFHQFVRDWTTGNPEKLAELADENARVNVGDKTVHGRDHIRTLFEKLIRRMDIELRDVKFQKSNGEISIKARMVLNENGRPKEFVMKNNAQAEGEKIKNFVLNDDS	0.048

Reference: the NTF2 design screens of Basanta et al. (2020)
